Paper PMC2653193, “A Unique Dual Activity Amino Acid Hydroxylase in Toxoplasma gondii” (PLoS ONE, 2009)

T1: TgAaaH2 (Toxoplasma gondii, UniProt B2L7T2)
T1 construct: gene AaaH2; N-terminal 23 residues (predicted signal peptide) removed; N-terminal 6xHis tag (pET 45b) kept; E. coli BL21; full-length ORF 565 residues; primer text says begins at residue 23
T1 sequence (B2L7T2 23-565): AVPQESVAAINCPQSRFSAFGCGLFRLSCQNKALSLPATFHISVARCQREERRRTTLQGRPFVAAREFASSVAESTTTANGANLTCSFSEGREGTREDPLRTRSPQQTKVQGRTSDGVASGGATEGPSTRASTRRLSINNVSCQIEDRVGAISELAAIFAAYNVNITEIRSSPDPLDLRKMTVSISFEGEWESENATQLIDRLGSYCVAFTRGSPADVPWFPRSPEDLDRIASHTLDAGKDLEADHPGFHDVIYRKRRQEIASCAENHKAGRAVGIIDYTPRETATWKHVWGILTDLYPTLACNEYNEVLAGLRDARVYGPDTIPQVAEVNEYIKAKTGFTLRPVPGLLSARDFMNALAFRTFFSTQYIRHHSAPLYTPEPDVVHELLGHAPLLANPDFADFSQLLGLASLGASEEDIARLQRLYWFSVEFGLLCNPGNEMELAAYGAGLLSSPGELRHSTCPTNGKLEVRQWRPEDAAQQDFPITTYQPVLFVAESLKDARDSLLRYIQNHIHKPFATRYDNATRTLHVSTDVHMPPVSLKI

T2: TgAaaH1 (Toxoplasma gondii, UniProt B2L7T1)
T2 construct: gene AaaH1; N-terminal 23 residues (predicted signal peptide) removed; N-terminal 6xHis tag (pET 45b) kept; E. coli BL21; full-length ORF 565 residues; primer text says begins at residue 23
T2 sequence (B2L7T1 23-565): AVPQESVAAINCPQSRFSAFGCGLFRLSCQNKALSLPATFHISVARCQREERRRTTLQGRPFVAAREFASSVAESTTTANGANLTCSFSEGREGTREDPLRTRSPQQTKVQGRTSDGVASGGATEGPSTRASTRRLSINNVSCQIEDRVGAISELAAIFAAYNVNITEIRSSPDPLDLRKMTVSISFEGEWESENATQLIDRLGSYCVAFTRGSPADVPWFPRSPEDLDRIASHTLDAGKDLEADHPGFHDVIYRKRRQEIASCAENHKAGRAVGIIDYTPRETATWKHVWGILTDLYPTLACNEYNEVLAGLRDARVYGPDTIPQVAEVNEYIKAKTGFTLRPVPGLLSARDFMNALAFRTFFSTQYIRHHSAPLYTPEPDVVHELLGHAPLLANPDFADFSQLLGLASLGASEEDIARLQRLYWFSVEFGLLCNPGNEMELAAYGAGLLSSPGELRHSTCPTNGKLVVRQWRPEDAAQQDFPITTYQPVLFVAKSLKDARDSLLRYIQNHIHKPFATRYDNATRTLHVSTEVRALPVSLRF


Key:
TgAaaH2 = target: T1, TgAaaH2; experiment: coupled dihydropteridine reductase assay, NADH oxidation at […] nm; assay type: biochemical; conditions: 50 µM amino acid (tyrosine in Figure 4B), 0-500 µM 6-MPH4, 500 µM NADH, 10 µM ferrous ammonium sulphate, 50 mM HEPES, pH 7.5, 32°C; range printed jointly for both enzymes, not assigned
TgAaaH1 = target: T2, TgAaaH1; experiment: as above; assay type: biochemical; conditions: 50 µM amino acid (tyrosine in Figure 4B), 0-500 µM 6-MPH4, 500 µM NADH, 10 µM ferrous ammonium sulphate, 50 mM HEPES, pH 7.5, 32°C; range printed jointly for both enzymes, not assigned
purified protein [1] = substrate: N[C@@H](Cc1ccc(O)cc1)C(=O)O; experiment: purified protein; assay type: biochemical, Toxoplasma gondii; conditions: 500 µM 6-MPH4, 500 µM NADH, 10 µM ferrous ammonium sulphate, 50 mM HEPES, pH 7.5, 32°C, 0-200 µM tyrosine, substrate inhibition at high concentration
purified protein [2] = substrate: N[C@@H](Cc1ccccc1)C(=O)O; experiment: purified protein; assay type: biochemical, Toxoplasma gondii; conditions: 500 µM 6-MPH4, 500 µM NADH, 10 µM ferrous ammonium sulphate, 50 mM HEPES, pH 7.5, 32°C, 0-200 µM phenylalanine, substrate inhibition at high concentration

Molecule	Km (TgAaaH2) [µM]	Km (TgAaaH1) [µM]	Km (purified protein [1]) [µM]	Vmax (purified protein [1]) [µmol/min/mg]	Km (purified protein [2]) [µM]	Vmax (purified protein [2]) [µmol/min/mg]
CC1CNc2nc(N)[nH]c(=O)c2N1 (stereo not shown) [6-MPH4]	310 to 318	310 to 318				
TgAaaH1 (Toxoplasma gondii) (protein, N-terminal 23 residues (predicted signal peptide) removed; N-terminal 6xHis tag (pET 45b) kept; E. coli BL21; full-length ORF 565 residues; primer text says begins at residue 23) AVPQESVAAINCPQSRFSAFGCGLFRLSCQNKALSLPATFHISVARCQREERRRTTLQGRPFVAAREFASSVAESTTTANGANLTCSFSEGREGTREDPLRTRSPQQTKVQGRTSDGVASGGATEGPSTRASTRRLSINNVSCQIEDRVGAISELAAIFAAYNVNITEIRSSPDPLDLRKMTVSISFEGEWESENATQLIDRLGSYCVAFTRGSPADVPWFPRSPEDLDRIASHTLDAGKDLEADHPGFHDVIYRKRRQEIASCAENHKAGRAVGIIDYTPRETATWKHVWGILTDLYPTLACNEYNEVLAGLRDARVYGPDTIPQVAEVNEYIKAKTGFTLRPVPGLLSARDFMNALAFRTFFSTQYIRHHSAPLYTPEPDVVHELLGHAPLLANPDFADFSQLLGLASLGASEEDIARLQRLYWFSVEFGLLCNPGNEMELAAYGAGLLSSPGELRHSTCPTNGKLVVRQWRPEDAAQQDFPITTYQPVLFVAKSLKDARDSLLRYIQNHIHKPFATRYDNATRTLHVSTEVRALPVSLRF			1.25 ± 0.69	0.137 ± 0.014	2.45 ± 1.87	0.125 ± 0.015
TgAaaH2 (Toxoplasma gondii) (protein, N-terminal 23 residues (predicted signal peptide) removed; N-terminal 6xHis tag (pET 45b) kept; E. coli BL21; full-length ORF 565 residues; primer text says begins at residue 23) AVPQESVAAINCPQSRFSAFGCGLFRLSCQNKALSLPATFHISVARCQREERRRTTLQGRPFVAAREFASSVAESTTTANGANLTCSFSEGREGTREDPLRTRSPQQTKVQGRTSDGVASGGATEGPSTRASTRRLSINNVSCQIEDRVGAISELAAIFAAYNVNITEIRSSPDPLDLRKMTVSISFEGEWESENATQLIDRLGSYCVAFTRGSPADVPWFPRSPEDLDRIASHTLDAGKDLEADHPGFHDVIYRKRRQEIASCAENHKAGRAVGIIDYTPRETATWKHVWGILTDLYPTLACNEYNEVLAGLRDARVYGPDTIPQVAEVNEYIKAKTGFTLRPVPGLLSARDFMNALAFRTFFSTQYIRHHSAPLYTPEPDVVHELLGHAPLLANPDFADFSQLLGLASLGASEEDIARLQRLYWFSVEFGLLCNPGNEMELAAYGAGLLSSPGELRHSTCPTNGKLEVRQWRPEDAAQQDFPITTYQPVLFVAESLKDARDSLLRYIQNHIHKPFATRYDNATRTLHVSTDVHMPPVSLKI			5.50 ± 3.26	0.123 ± 0.001	14.8 ± 6.4	0.145 ± 0.037
